Columns and labels:
Assay in all cases: cell-based or functional assay
activin A (human) = biological target: T1, activin A (human) (UniProt P08476)
T1 sequence: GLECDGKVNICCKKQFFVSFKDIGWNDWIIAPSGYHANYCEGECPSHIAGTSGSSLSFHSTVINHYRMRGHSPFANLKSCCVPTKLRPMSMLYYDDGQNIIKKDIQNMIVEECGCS

[1] = biological target: T2, myostatin (Homo sapiens (Human)) (UniProt O14793)
T2 sequence: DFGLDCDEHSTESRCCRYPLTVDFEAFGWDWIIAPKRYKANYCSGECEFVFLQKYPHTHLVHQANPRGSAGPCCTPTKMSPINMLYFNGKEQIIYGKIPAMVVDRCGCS

[2] = biological target: T3, GDF11 (Growth Differentiation Factor 11) (Homo sapiens (Human)) (UniProt O95390)
T3 sequence: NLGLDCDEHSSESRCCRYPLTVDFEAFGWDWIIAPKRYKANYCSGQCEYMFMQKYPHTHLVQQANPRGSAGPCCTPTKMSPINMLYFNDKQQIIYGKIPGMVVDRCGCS

VGFR(½)-hFc (Aflibercept) (Fc fusion), sequence (chain): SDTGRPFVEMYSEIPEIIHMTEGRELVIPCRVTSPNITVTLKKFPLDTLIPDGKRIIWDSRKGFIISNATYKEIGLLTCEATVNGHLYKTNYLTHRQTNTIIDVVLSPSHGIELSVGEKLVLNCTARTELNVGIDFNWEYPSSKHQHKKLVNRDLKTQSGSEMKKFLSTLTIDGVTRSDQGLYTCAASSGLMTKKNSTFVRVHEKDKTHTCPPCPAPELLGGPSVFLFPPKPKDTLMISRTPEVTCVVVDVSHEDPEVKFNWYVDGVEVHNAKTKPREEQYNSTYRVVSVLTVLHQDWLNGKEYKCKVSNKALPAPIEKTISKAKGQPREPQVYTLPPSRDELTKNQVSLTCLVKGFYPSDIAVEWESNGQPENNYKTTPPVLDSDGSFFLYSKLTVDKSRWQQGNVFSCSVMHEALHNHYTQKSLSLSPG

Substance	neutralization of activin A signaling (pSmad2/3 luciferase reporter bioassay, HEK293) (activin A (human)) [nM]	neutralization of myostatin signaling (pSmad2/3 luciferase reporter bioassay, HEK293) [1] [nM]	neutralization of GDF11 signaling (pSmad2/3 luciferase reporter bioassay, HEK293) [2] [nM]
FSD1 (E126A) (single entity produced in E. coli) (from UniProt P19883 93-165)	> 822	> 822	–
FSD1 (Q124A) (single entity produced in E. coli) (from UniProt P19883 93-165)	> 822	> 822	–
FSD1 (Q124A, E126A) (single entity produced in E. coli) (from UniProt P19883 93-165)	> 822	> 822	–
TNFR2-hFc (Etanercept) (Fc fusion)	> 8.2	> 8.2	> 8.2
VGFR(½)-hFc (Aflibercept) (Fc fusion)	–	> 8.2	> 8.2
